Data on one variant can be found in PMC11143359 (2024).

To fix the notation:
B1: Lag3-Myc, full-length (FL), in HEK293FT cells [not stated] / human FLAG-APLP1, full length [human] (parent complex)
chain 1: GPGKELPVVWAQEGAPVHLPCSLKSPNLDPNFLRRGGVIWQHQPDSGQPTPIPALDLHQGMPSPRQPAPGRYTVLSVAPGGLRSGRQPLHPHVQLEERGLQRGDFSLWLRPALRTDAGEYHATVRLPNRALSCSLRLRVGQASMIASPSGVLKLSDWVLLNCSFSRPDRPVSVHWFQGQNRVPVYNSPRHFLAETFLLLPQVSPLDSGTWGCVLTYRDGFNVSITYNLKVLGLEPVAPLTVYAAEGSRVELPCHLPPGVGTPSLLIAKWTPPGGGPELPVAGKSGNFTLHLEAVGLAQAGTYTCSIHLQGQQLNATVTLAVITVTPKSFGLPGSRGKLLCEVTPASGKERFVWRPLNNLSRSCPGPVLEIQEARLLAERWQCQLYEGQRLLGATVYAAESSSGAHSARRISGDLKGGHLVLVLILGALSLFLLVAGAFGFHWWRKQLLLRRFSALEHGIQPFPAQRKIEELERELETEMGQEPEPEPEPQLEPEPRQL
chain 2: SLAGGSPGAAEAPGSAQVAGLCGRLTLHRDLRTGRWEPDPQRSRRCLRDPQRVLEYCRQMYPELQIARVEQATQAIPMERWCGGSRSGSCAHPHHQVVPFRCLPGEFVSEALLVPEGCRFLHQERMDQCESSTRRHQEAQEACSSQGLILHGSGMLLPCGSDRFRGVEYVCCPPPGTPDPSGTAVGDPSTRSWPPGSRVEGAEDEEEEESFPQPVDDYFVEPPQAEEEEETVPPPSSHTLAVVGKVTPTPRPTDGVDIYFGMPGEISEHEGFLRAKMDLEERRMRQINEVMREWAMADNQSKNLPKADRQALNEHFQSILQTLEEQVSGERQRLVETHATRVIALINDQRRAALEGFLAALQADPPQAERVLLALRRYLRAEQKEQRHTLRHYQHVAAVDPEKAQQMRFQVHTHLQVIEERVNQSLGLLDQNPHLAQELRPQIQELLHSEHLGPSELEAPAPGGSSEDKGGLQPPDSKDDTPMTLPKGSTEQDAASPEKEKMNPLEQYERKVNASVPRGFPFHSSEIQRDELAPAGTGVSREAVSGLLIMGAGGGSLIVLSMLLLRRKKPYGAISHGVVEVDPMLTLEEQQLRELQRHGYENPTYRFLEERP

The assay covers variants of B1. As to the kind of experiment: co-IP (IP: FLAG, blot Myc-Lag3), band intensity quantified; read off a plot.
For chain 2 L25A, chain 2 T26A, chain 2 H28A, chain 2 D30A, chain 2 C46A, chain 2 L47A, chain 2 Q71A, chain 2 T73A, chain 2 I76A, the response was around 20 AU.
